The values that follow come from PMC10708393, “The Fabrication of a Probe-Integrated Electrochemiluminescence Aptasensor Based on Double-Layered Nanochannel Array with Opposite Charges for the Sensitive Determination of C-Reactive Protein”.

The target of one data set is T1, C-reactive protein (CRP) (UniProt P02741 19-224).
T1 sequence: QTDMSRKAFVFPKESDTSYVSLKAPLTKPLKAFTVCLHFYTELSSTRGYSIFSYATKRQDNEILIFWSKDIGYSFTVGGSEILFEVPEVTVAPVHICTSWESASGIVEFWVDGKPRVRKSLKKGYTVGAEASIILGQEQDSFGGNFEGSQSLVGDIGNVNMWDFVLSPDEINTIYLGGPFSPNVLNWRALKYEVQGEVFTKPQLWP
Put plainly: electrochemiluminescence aptasensor; linear response 0.01-1000 ng/mL, LOD 8.5 pg/mL; immobilized aptamer; CRP incubation 4 °C, 1 h on BSA-blocked aptamer electrode; wash 0.01 M PBS pH 7.4; ECL read in 3 mM TPA, 0.01 M PBS pH 7.4, room temperature. The conditions noted are these: protein: commercial; chain copies: 5.

The target of data set [1] is carbohydrate antigen 15-3 (CA15-3) (UniProt P15941 24-1097). The data set can be described thus: electrochemiluminescence aptasensor; selectivity test; no significant ECL decrease; CRP incubation 4 °C, 1 h on BSA-blocked aptamer electrode; wash 0.01 M PBS pH 7.4; ECL read in 3 mM TPA, 0.01 M PBS pH 7.4, room temperature. Particulars: protein: commercial.
Chain of carbohydrate antigen 15-3 (CA15-3) (P15941 24-1097): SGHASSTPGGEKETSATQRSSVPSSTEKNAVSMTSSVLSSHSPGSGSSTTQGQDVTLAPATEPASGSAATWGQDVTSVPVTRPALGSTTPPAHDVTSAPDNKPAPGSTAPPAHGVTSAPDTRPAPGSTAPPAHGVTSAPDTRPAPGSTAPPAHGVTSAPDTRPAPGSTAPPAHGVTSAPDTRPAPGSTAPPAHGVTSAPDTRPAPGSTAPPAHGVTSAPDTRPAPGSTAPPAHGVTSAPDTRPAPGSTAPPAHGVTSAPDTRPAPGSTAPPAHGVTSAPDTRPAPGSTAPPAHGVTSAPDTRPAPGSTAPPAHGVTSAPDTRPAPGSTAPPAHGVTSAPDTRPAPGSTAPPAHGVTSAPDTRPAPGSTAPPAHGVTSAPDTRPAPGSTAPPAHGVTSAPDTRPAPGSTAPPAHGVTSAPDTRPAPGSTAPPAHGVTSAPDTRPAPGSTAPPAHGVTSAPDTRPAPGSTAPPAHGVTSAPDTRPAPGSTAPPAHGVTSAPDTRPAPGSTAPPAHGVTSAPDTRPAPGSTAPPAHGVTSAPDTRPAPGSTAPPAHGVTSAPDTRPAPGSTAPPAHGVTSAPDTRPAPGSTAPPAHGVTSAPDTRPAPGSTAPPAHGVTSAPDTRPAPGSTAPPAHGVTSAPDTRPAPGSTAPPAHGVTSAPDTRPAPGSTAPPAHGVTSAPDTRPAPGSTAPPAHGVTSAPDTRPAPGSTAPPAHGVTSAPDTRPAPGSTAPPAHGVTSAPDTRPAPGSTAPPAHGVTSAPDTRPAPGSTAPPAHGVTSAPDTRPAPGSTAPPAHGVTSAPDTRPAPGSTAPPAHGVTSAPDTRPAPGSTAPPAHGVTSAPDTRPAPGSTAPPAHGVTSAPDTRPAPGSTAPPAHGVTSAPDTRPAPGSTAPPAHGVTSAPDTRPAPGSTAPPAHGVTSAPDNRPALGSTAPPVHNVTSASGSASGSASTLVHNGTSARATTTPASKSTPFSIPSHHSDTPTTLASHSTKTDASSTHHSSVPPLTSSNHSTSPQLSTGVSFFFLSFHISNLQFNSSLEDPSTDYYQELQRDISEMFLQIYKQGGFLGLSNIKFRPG
The target in data set [2] is carcinoembryonic antigen (CEA) (UniProt P06731 35-685). Described as above. The conditions noted are these: protein: commercial.
Chain of carcinoembryonic antigen (CEA) (P06731 35-685): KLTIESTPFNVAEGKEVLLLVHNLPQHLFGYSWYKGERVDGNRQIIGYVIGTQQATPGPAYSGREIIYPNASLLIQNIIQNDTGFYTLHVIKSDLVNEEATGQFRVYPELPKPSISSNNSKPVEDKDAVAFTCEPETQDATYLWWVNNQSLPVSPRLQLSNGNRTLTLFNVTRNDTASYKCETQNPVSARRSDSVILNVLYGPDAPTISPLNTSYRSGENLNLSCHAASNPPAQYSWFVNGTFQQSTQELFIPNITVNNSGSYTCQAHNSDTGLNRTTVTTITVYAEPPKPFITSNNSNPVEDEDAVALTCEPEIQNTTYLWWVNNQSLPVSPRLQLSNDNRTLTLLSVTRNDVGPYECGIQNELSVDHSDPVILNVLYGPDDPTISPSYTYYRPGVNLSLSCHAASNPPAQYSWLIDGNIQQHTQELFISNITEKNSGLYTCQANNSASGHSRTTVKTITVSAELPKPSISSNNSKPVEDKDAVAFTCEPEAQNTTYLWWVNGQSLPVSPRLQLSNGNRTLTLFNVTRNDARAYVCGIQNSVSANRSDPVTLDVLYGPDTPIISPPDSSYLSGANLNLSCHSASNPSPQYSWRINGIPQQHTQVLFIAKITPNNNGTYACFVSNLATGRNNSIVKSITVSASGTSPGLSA

As for CGAAGGGGATTCGAGGGGTGATTGCGTGCTCCATTTGGTG (ssDNA, 5'-NH2) [CRP aptamer], the binding result with C-reactive protein (CRP) is listed as “binds”; in data set [1] it was “no binding”; in data set [2] it was “no binding”.
